PMC3835729

Substrate: Nc1ncnc2c1ncn2[C@@H]1O[C@H](COP(=O)(O)OC(=O)CCc2c[nH]c3ccccc23)[C@@H](O)[C@H]1O
Test: purified protein
Conditions: 20 mM HEPES, 1 mM MgCl2, pH 7.2, 25 °C

B1: human histidine triad nucleotide binding protein 1 (hHint1) (Homo sapiens; H114A) (protein)
chain: ADEIAKAQVARPGGDTIFGKIIRKEIPAKIIFEDDRCLAFHDISPQAPTHFLVIPKKHISQISVAEDDDESLLGHLMIVGKKCAADLGLNKGYRMVVNEGSDGGQSVYHVHLAVLGGRQMHWPPG
Km: 0.12 ± 0.01 µM | kcat: 0.69 ± 0.05 s⁻¹ | kcat/Km: 6e+06 ± 1e+06 M⁻¹ s⁻¹
